Experimental findings from patent publication US20250197514A1 (INTERVET, published 2025) are described below.

Where a chain is given by its changes, count along the chain named. In names and notes the source's numbering stands.

Experiment [1] concerns the target T1, canine FcRn heterodimer (FCGRT large subunit p51 + beta-2-microglobulin), biotin-labeled (Canis lupus familiaris; Canis familiaris, biotin-labeled (site not stated; the chain carries an AviTag)).
T1 construct: also called FcRn/B2M; FcRn/β2M; not shown: AviTag, named only
T1 chain (part 1 of 2): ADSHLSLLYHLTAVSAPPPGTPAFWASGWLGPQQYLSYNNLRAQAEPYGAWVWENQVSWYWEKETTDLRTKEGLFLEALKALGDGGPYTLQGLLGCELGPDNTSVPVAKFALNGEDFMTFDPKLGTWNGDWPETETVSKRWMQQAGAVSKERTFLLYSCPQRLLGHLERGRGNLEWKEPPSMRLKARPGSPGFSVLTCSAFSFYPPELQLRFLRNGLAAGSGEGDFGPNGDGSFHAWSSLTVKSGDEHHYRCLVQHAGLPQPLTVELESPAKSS
T1 chain (part 2 of 2): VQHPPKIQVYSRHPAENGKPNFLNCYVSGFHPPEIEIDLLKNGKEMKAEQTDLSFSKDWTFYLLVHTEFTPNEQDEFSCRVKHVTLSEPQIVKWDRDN
Nature of the experiment: BLI (Octet HTX), biotinylated FcRn/B2M on streptavidin biosensors, analyte 500-7.8 nM, pH 7.4, 1:1 fit. The procedure:
(§1) The binding of antibodies and IgG Fc fusion proteins to FcRn proteins was determined by Octet™ HTX using Streptavidin (SA) biosensors. First, biotin-labeled […] was loaded onto pre-hydrated SA biosensors for 60 s at a concentration of 10 μg/mL. Second, the biosensors were placed into pH 6.0 TBS/Casein buffer for the blocking phase for 180 s. Third, for the association phase, FcRn/B2M loaded biosensors were placed into 2-fold serial dilutions from 500 nM down to 7.8 nM of antibody or IgG Fc fusion protein in pH 6.0 or 7.4 TBS/Casein buffer for 15 s. Finally, the biosensors were placed into either pH 6.0 or pH 7.4 TBS/Casein buffer for the dissociation phase for 60 s. Analysis was performed using Octet Data Analysis 12.0 software and curves were fitted using a 1:1 binding model.
For orientation: BLI is a label-free optical method that tracks binding on a fibre tip over time.

For experiment [2], the target named is T1, canine FcRn heterodimer (FCGRT large …). Nature of the experiment: BLI (Octet HTX), biotinylated FcRn/B2M on streptavidin biosensors, analyte 500-7.8 nM, pH 6.0, 1:1 fit; pH 6.0. As for the experimental part: as §1
For experiment [3] the target is unchanged. Nature of the experiment: BLI (Octet HTX), biotinylated FcRn/B2M on streptavidin biosensors, analyte 500-7.8 nM, pH 6.0, 1:1 fit. As for the experimental part: as §1
Experiment [4] has the same target. Nature of the experiment: BLI (Octet HTX), biotinylated FcRn/B2M on streptavidin biosensors, analyte 500-7.8 nM, pH 7.4, 1:1 fit; pH 7.4. As for the experimental part: as §1

B1: cIL-13Rα2-cIgGB-Fc-KFT (Fc fusion)
chain: SMLSNAEIKVNPPQDFEIVDPGYLGYLSLQWQPPLFPDNFKECTIEYELKYRNIDSENWKTIITKNLHYKDGFDLNKGIEAKINTLLPAQCTNGSEVRSSWAETTYWTSPQGNRETKIQDMDCVYYNWQYLVCSWKPGMGVHFDTNYQLFYWYEGLDHSAECTDYIKVNGKNMGCRFPYLESSDYKDFYICVNGSSESQPIRPSYFIFQLQNIVKPMPPDYLSLTVKNSEEINLKWNMPKGPIPAKCFIYEIEFTEDGTTWVTTTVENEIQITRTSNESQKLCFLVRSKVNIYCSDDGIWSEWSDEQCWKGDIWKETPKRENGRVPRPPDCPKCPAPEMLGGPSVFIFPPKPKDTLLIARTPEVTCVVVDLDPEDPEVQISWFVDGKQMQTAKTQPREEQFNGTYRVVSVLPIGHQDWLKGKQFTCKVNNKALPSPIERTISKARGQAHQPSVYVLPPSREELSKNTVSLTCLIKDFFPPDIDVEWQSNGQQEPESKYRTTPPQLDEDGSYFLYSKLSVDKSRWQRGDTFICAVMHEALKFHTTQESLSHSPGK
notes: also called cIL-13Ra2-cIgGB-Fc-KFT; H433K/N434F/Y436T
By Kd is commonly meant the equilibrium constant for the complex coming apart. B1: the Kd came out at 136 nM in experiment [1] and 931 nM in experiment [2].

B2: cIL-13Rα2-cIgGB-Fc-YT (Fc fusion)
chain: B1 chain with K540H, F541Y
notes: also called cIL-13Ra2-cIgGB-Fc-YT; N434Y/Y436T
Turning to B2, the Kd came to 233 nM in experiment [1] and 1.39 nM in experiment [3].

B3: cIL-13Rα2-cIgGB-Fc-KY (Fc fusion)
chain: B1 chain with F541Y, T543Y
notes: also called cIL-13Ra2-cIgGB-Fc-KY; H433K/N434Y
As to B3, the Kd in experiment [1] turned out to be 296 nM; in experiment [2] it was 0.00046 nM.

B4: c218D9-H4L3-cIgGBm-YD (antibody)
heavy: EVTLQESGPGLVKPSQTLSLTCSFSGFSLSTFGRGVGWIRQRPGRGLEWMGHIWWDDDKYYNPALKSRLSITKDTAKNQVFLQLSSMTTEDTAVYYCARIAGGLRRAPYAMDSWGQGTLVTVSSASTTAPSVFPLAPSCGSTSGSTVALACLVSGYFPEPVTVSWNSGSLTSGVHTFPSVLQSSGLYSLSSMVTVPSSRWPSETFTCNVAHPASKTKVDKPVPKRENGRVPRPPDCPKCPAPEMLGGPSVFIFPPKPKDTLYIARDPEVTCVVVALDPEDPEVQISWFVDGKQMQTAKTQPREEQFAGTYRVVSVLPIGHQDWLKGKQFTCKVNNKALPSPIERTISKARGQAHQPSVYVLPPSREELSKNTVSLTCLIKDFFPPDIDVEWQSNGQQEPESKYRTTPPQLDEDGSYFLYSKLSVDKSRWQRGDTFICAVMHEALHNHYTQESLSHSPGK
light: DIVMTQTPLSLSVSPGETASISCRASENIYSSLAWFRQKPGQSPQLLVYAATNLADGVPDRFSGSGSGTDYTLRISRVEADDTGVYYCQHFRDTPPTFGQGTKLEIKRNDAQPAVYLFQPSPDQLHTGSASVVCLLNSFYPKDINVKWKVDGVIQDTGIQESVTEQDKDSTYSLSSTLTMSSTEYLSHELYSCEITHKSLPSTLIKSFQRSECQRVD
notes: also called c218D9VH4-cIgGBm-YD; L252Y/T256D
In the case of B4, in experiment [4], the Kd was determined as 105 nM.
